According to patent US11667697 (VANDERBILT UNIVERSITY, dated 2023):

How the values were obtained:
VACV A33 protein [1] = molecular target: T1, VACV A33 protein (vaccinia virus, UniProt P68617 58-185); test: cell-based or functional assay
VACV A33 protein [2] = molecular target: T1, VACV A33 protein; test: purified antigen ELISA
VACV A33 protein [3] = molecular target: T1, VACV A33 protein; test: lysate ELISA
VACV D8 protein [4] = molecular target: T2, VACV D8 protein (vaccinia virus, UniProt P04195 1-261); test: cell-based or functional assay
T2 sequence: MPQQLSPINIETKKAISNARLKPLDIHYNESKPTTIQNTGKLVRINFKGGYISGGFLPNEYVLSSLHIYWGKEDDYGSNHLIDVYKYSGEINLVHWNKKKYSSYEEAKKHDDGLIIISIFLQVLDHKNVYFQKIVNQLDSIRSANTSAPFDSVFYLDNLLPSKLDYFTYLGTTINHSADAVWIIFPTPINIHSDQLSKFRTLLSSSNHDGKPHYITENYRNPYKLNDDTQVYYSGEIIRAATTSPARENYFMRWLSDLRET

VACV D8 protein [5] = molecular target: T2, VACV D8 protein; test: purified antigen ELISA
VACV D8 protein [6] = molecular target: T2, VACV D8 protein; test: lysate ELISA
VACV L1 protein [7] = molecular target: T3, VACV L1 protein (vaccinia virus, UniProt P07612 1-185); test: cell-based or functional assay
T3 sequence: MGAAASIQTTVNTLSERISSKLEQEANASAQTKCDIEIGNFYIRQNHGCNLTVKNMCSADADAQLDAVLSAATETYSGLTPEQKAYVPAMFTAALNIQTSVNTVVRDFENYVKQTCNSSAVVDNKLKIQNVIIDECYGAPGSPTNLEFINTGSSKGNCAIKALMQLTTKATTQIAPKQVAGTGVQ

VACV L1 protein [8] = molecular target: T3, VACV L1 protein; test: purified antigen ELISA
VACV H3 protein [9] = molecular target: T4, VACV H3 protein (vaccinia virus, UniProt P07240 1-278); test: cell-based or functional assay
T4 sequence: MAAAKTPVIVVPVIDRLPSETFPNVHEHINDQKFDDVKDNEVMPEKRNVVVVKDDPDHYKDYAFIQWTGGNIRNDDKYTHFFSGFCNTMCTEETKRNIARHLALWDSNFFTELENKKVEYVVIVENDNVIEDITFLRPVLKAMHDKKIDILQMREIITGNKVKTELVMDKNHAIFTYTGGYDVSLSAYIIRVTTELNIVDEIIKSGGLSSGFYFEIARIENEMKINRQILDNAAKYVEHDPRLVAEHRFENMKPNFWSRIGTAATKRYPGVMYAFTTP

VACV H3 protein [10] = molecular target: T4, VACV H3 protein; test: purified antigen ELISA
VACV H3 protein [11] = molecular target: T4, VACV H3 protein; test: lysate ELISA

B1: MPXV-56 (antibody, V domains shown)
VH: QVQLQQSGPGLVKPSQTLSLTCAISGDSVSSNSAAWIWIRQSPSRGLEWLGTTYYRSEWYSDYPASVKSRVTINADTSKNQFSLQLNSVTPEDTAVYYCARITVGYNSPHLRVTRGWLDPWGPGNP
VL: not shown
notes: human IgG2, anti-A33
- PRNT Emax, VACV EV+C' (VACV A33 protein [1]): 56%
- PRNT IC50, VACV EV+C' (VACV A33 protein [1]): 0.16 µg/mL
- EC50 (VACV A33 protein [2]): 0.06 µg/mL
- EC50 (VACV A33 protein [3]): > 0.07 µg/mL

B2: VACV-128 (antibody, V domains shown)
VH: EVQLVQSGAEVKKPGATVKISCKVSGYTFTDYYMHWVQQAPGKGLKWMGLLDPLDGETIYSEKFQGKVTITADTSTDTAYMELSSLRSEDTAVYYCARELTGYLNYWGQGTLVTVSS
VL: DIQMTQSPSSLSASVGDRVTITCRASPGICNYLAWYQHKPGKVPKLLIYAASTLQSGVPSRFTGVGSGTNFTLTINNLPPENVATYYCQKYNSAPHTFGQGTKVDIK
notes: human IgG1, anti-D8
- PRNT Emax, VACV MV+C' (VACV D8 protein [4]): 86%
- PRNT IC50, VACV MV+C' (VACV D8 protein [4]): 0.5 µg/mL
- EC50 (VACV D8 protein [5]): 1.1 µg/mL
- EC50 (VACV D8 protein [6]): 0.3 µg/mL

B3: VACV-34 (antibody, V domains shown)
VH: QVQLVESGGGLVQPGRSLRLSCAASGFTFDDYAMHWVRQAPGKGLEWVSGLSWNSGSIGYADSVKGRFTISRDNAKNSLYLQMNSLRAEDTALYYCAKETEKYYYDSSGYDYWGQGTLVTVSS
VL: EIVLTQSPGTLSLSPGERATLSCRASQSVSSIYLAWYQQKPGQAPRLLIYGASSRATGIPDRFSGSGSGTDFTLTISRLEPEDFAVYYCQQYGSRGTFGQGTKLEIK
notes: human IgG1, anti-L1
- PRNT Emax, VACV MV (VACV L1 protein [7]): 76%
- PRNT Emax, VACV MV+C' (VACV L1 protein [7]): 78%
- PRNT IC50, VACV MV (VACV L1 protein [7]): 3.3 µg/mL
- PRNT IC50, VACV MV+C' (VACV L1 protein [7]): 0.96 µg/mL
- EC50 (VACV L1 protein [8]): 0.04 µg/mL

B4: VACV-80 (antibody, V domains shown)
VH: EVQLVESGGGLVQPGESLKISCAATGFTFSSYWMHWVRQAPGKGLVWVSGINSDGSSTSYADSVKGRFTIARDNAKGTLYLQMNSLRAEDTAVYYCARVGAVRIAAAAPDYWGQGTLVTVSS
VL: not shown
notes: human IgG1, anti-A33
- EC50 (VACV A33 protein [2]): 0.065 µg/mL
- EC50 (VACV A33 protein [3]): > 69 µg/mL

B5: MPXV-79 (antibody, V domains shown)
VH: QVQLVQSGAEVKKPGASVKVSCKASGYSFRSNGISWVRQAPGQGFEWLGWIAAYNGDTKYVQKFQGRLTMTTDTSTDTAYMELWSLRSDDTAVYYCARDPKLGRKGSAFDIWGQGTLVIVSS
VL: EIVLTQSPATLSLSPGGRATLSCRASQSVGNYLTWYQQKPGQAPRLLIFDGSTRATGIPARFSGSGSGTDFTLTISSLEPEDFAVYYCLQRSDLYTFGQGTKVDIK
notes: human IgG1, anti-H3
- PRNT Emax, VACV MV+C' (VACV H3 protein [9]): 62%
- PRNT IC50, VACV MV+C' (VACV H3 protein [9]): 4.7 µg/mL
- EC50 (VACV H3 protein [10]): 0.06 µg/mL
- EC50 (VACV H3 protein [11]): 0.004 µg/mL

B6: VACV-315 (antibody, V domains shown)
VH: EVQLLESGGGLVQPGGSLKLSCAASGFIFSNYAMGWVRQAPGKGLEWVSALSASDGVTSYADSVKGRFTISRDNSKNTMYLQMNRLRTEDTAIYFCAKGRARVNNIYRYFDHWGQGTLVTVSS
VL: QSVLTQPASVSGSPGQSITISCTGTSSDVGAYTFVSWYQHHPGKAPKLIIYEVSNRPSGVSDRFSGSKSGNTASLTISGLQAEDEADYYCNSYTTTSPWVFGGGTQLTVL
notes: human IgG1, anti-H3
- PRNT Emax, VACV MV+C' (VACV H3 protein [9]): 72%
- PRNT IC50, VACV MV+C' (VACV H3 protein [9]): 2.2 µg/mL
- EC50 (VACV H3 protein [10]): 0.2 µg/mL
- EC50 (VACV H3 protein [11]): 0.002 µg/mL

B7: VACV-314 (antibody, V domains shown)
VH: QVQLVQSGPGLVKPSETLSLTCTVSGGSISSYYWSWIRQPPGKGLEYIGHIYYSGGTKYNPSLRSRVTISVDTSKNQFSLKLTSVTAADTAVYYCARLAGRKPDADSWGQGTLVTVSS
VL: QPVLTQEPSLTVSPGGTVTLTCASSTGAVTSGFFPNWLQQKPGQAPRALIYSTNNKHSWTPARFSGSLLGGKAALTLSGVQPEDEAEYYCLLYYGGVVVFGGGTKLTVL
notes: human IgG3, anti-H3
- PRNT Emax, VACV MV+C' (VACV H3 protein [9]): 74%
- PRNT IC50, VACV MV+C' (VACV H3 protein [9]): 0.1 µg/mL
- EC50 (VACV H3 protein [10]): 0.1 µg/mL
- EC50 (VACV H3 protein [11]): 0.003 µg/mL
